Legend:
[1] = Stain removal with laccases, tea; details: 60 min, pH 6
Method: (§1) The TaLcc1 (RF5598) and Denilite II Base laccase preparations were tested for their ability to remove stains. The following artificially soiled test cloths were used: grass soiling (Art. 164, EMPA Testmaterialen, Germany), tea soiling (Art. 167, EMPA Testmaterialen, Germany). The fabric was cut in 5.8×5.8 cm swatches. Laccase treatments were performed in LP-2 Launder Ometer as follows. About 5 g of soiled fabrics were loaded into 1.2 liter containers containing 150 ml Mc Ilvaine's citrate phosphate buffer pH 6 and the containers were temperated. Enzymes with or without the mediator (methyl syringate, DeniLite II Assist, Novozymes) were dosed as laccase activity units (Example 7). Enzyme dosage was 200 nkat/g and mediator dosage 10 mg/g of the weight of fabric, except at 40° C. also dosages of 20 nkat/g and 2 mg/g were used. The Launder Ometer was run at 40, 50 or 60° C. and pH 6 for 60 min. After that the swatches were carefully rinsed under running water and in shake flasks containing warm water and dried in the air.
(§2) The stain removal effect was evaluated by measuring the colour as reflectance values using L*a*b* color space coordinates (Example 7). The colour of the swatches was measured before and after the laccase treatment.

[2] = Stain removal with laccases, grass; details: 60 min, pH 6
Method: as §1, §2

[3] = 20 nkat/g, mediator 2 mg/g, 40° C.
[4] = 200 nkat/g, mediator 0 mg/g, 40° C.
[5] = 200 nkat/g, mediator 0 mg/g, 60° C.
[6] = 200 nkat/g, mediator 10 mg/g, 40° C.
[7] = 200 nkat/g, mediator 10 mg/g, 50° C.
[8] = 200 nkat/g, mediator 10 mg/g, 60° C.

B1: TaLcc1: Recombinant Thielavia arenaria ALKO4197 laccase 1 (SEQ ID NO: 12) produced in Trichoderma reesei strains RF5597/RF5598 (protein)
chain: MKSWAAAVALMVGILSPHAAAAPPANPVQRDMLQVLEARQSGPTCNTPSNRACWTNGFDINTDYEVSTPNTGRTVAYQLTLTEKENWIGPDGVLKNVVMLVNDKIIGPTIRANWGDNIEVTVINNLKTNGTSMHWHGLRQLGNVFNDGANGVTECPIPPKGGRKTYKFRATQYGTSWYHSHFSAQYGNGVVGTIQIDGPASLPYDIDLGVFPLMDYYYRSADELVHFTQSNGAPPSDNVLFNGTARHPETGAGQWYNVTLTPGKRHRLRIINTSTDNHFQVSLVGHNMTVIATDMVPVNAFTVSSLFLAVGQRYDVTIDANSPVGNYWFNVTFGDGLCGSSNNKFPAAIFRYQGAPATLPTDQGLPVPNHMCLDNLNLTPVVTRSAPVNNFVKRPSNTLGVTLDIGGTPLFVWKVNGSAINVDWGKPILDYVMSGNTSYPVSDNIVQVDAVDQWTYWLIENDPTNPIVSLPHPMHLHGHDFLVLGRSPDELPSAGVRHIFDPAKDLPRLKGNNPVRRDVTMLPAGGWLLLAFKTDNPGAWLFHCHIAWHVSGGLSVDFLERPNDLRTQLNSNAKRADRDDFNRVCREWNAYWPTNPFPKIDSGLRHRFVEESEWMVR
modifications: Thielavia arenaria ALKO4197; (1)..(617) Deduced amino acid sequence of Thielavia arenaria ALKO4197 laccase 1 (Ta Lcc1)
With B1 the “Tea L*” value [1, 3] was 77.17, the “Tea a*” value [1, 3] was 4.65 and the “Tea b*” value [1, 3] was 24.40. The “Tea L*” value [1, 4] was 75.99, the “Tea a*” value [1, 4] was 5.59 and the “Tea b*” value [1, 4] was 23.54. For the same molecule, the “Tea L*” value [1, 5] was 76.98, the “Tea a*” value [1, 5] was 4.98 and the “Tea b*” value [1, 5] was 21.20. The “Tea L*” value [1, 6] was 78.77, the “Tea a*” value [1, 6] was 3.93 and the “Tea b*” value [1, 6] was 24.97. For the same molecule, the “Tea L*” value [1, 7] was 79.52, the “Tea a*” value [1, 7] was 3.45 and the “Tea b*” value [1, 7] was 23.74. The “Tea L*” value [1, 8] was 81.69, the “Tea a*” value [1, 8] was 2.91 and the “Tea b*” value [1, 8] was 22.29. For the same molecule, the “Grass L*” value [2, 3] was 80.16, the “Grass a*” value [2, 3] was −0.73 and the “Grass b*” value [2, 3] was 16.20. For the same molecule, the “Grass L*” value [2, 4] was 80.25, the “Grass a*” value [2, 4] was −4.22 and the “Grass b*” value [2, 4] was 17.41. For the same molecule, the “Grass L*” value [2, 5] was 79.38, the “Grass a*” value [2, 5] was −4.19 and the “Grass b*” value [2, 5] was 17.77. For the same molecule, the “Grass L*” value [2, 6] was 80.34, the “Grass a*” value [2, 6] was 0.47 and the “Grass b*” value [2, 6] was 16.51. For the same molecule, the “Grass L*” value [2, 7] was 80.60, the “Grass a*” value [2, 7] was −0.18 and the “Grass b*” value [2, 7] was 17.65. The “Grass L*” value [2, 8] was 80.6, the “Grass a*” value [2, 8] was 0.02 and the “Grass b*” value [2, 8] was 18.71.

— patent US7927849B2, “Laccase enzyme and use thereof” (AB Enzymes OY, priority 2004, dated 2011)
